Reference: patent US20230279137A1 (EVOTEC INTERNATIONAL, published 2023)

Tests used:
Test in all cases: cell-based or functional assay
[1] = biological target: T1, human IFNγ receptor on HEK-Blue IFN-γ cells (human, UniProt P15260 18-489; P38484 22-337)
T1 sequence (looked up) 1: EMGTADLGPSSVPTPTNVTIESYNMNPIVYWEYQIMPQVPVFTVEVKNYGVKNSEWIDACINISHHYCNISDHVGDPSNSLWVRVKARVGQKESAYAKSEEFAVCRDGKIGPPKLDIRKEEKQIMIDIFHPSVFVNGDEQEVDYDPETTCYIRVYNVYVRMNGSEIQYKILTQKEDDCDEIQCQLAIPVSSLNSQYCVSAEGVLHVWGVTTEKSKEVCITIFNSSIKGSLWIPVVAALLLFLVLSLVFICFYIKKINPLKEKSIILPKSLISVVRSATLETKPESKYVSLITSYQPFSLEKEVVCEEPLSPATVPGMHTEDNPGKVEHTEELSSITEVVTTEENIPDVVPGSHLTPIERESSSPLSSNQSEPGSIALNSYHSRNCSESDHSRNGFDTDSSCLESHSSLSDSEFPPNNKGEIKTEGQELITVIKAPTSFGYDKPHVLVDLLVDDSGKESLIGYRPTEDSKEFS
T1 sequence (looked up) 2: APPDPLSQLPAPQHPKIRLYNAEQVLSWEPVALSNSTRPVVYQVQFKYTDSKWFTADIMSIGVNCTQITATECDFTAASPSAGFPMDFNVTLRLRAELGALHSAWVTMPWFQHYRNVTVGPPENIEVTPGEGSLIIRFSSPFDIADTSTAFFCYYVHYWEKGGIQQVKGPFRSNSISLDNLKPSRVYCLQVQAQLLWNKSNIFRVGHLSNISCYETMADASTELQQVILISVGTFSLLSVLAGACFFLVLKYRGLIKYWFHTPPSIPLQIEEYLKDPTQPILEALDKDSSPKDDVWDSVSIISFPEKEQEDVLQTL

human CD40 = human CD40 (human, UniProt P25942 21-277)
[2] = biological target: T1, human IFNγ receptor on HEK-Blue IFN-γ …; remark: listed apart in the source
[3] = biological target: T2, human type I IFN receptor on HEK-Blue IFN-α/β cells (human, UniProt P17181 28-557; P48551 27-515)
T2 sequence (looked up) 1: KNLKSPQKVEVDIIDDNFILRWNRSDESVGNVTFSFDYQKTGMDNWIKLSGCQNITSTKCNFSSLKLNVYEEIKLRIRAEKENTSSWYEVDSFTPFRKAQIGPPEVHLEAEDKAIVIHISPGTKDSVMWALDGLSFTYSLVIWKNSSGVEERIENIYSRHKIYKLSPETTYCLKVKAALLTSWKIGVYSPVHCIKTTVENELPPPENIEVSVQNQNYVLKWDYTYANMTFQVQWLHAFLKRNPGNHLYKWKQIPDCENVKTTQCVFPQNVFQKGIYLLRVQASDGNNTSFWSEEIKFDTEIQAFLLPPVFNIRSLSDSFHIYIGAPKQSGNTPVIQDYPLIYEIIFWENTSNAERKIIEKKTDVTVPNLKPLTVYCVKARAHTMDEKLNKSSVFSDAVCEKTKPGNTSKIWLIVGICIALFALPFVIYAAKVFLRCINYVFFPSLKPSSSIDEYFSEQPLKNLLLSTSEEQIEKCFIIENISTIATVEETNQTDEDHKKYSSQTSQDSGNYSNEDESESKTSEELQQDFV
T2 sequence (looked up) 2: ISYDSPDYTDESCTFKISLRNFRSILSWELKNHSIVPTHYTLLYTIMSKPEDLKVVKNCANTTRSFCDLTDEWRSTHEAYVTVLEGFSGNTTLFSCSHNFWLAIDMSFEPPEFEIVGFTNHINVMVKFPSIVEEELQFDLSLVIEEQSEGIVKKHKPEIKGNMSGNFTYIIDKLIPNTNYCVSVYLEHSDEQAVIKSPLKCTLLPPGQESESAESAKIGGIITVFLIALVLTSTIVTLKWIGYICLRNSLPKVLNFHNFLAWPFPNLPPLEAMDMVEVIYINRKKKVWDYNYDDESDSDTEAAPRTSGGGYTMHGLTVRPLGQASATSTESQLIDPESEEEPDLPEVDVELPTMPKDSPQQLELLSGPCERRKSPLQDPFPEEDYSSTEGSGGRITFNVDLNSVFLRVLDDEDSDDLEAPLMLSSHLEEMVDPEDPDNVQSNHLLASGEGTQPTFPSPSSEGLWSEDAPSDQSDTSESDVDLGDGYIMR

Sequence of human CD40 (P25942 21-277): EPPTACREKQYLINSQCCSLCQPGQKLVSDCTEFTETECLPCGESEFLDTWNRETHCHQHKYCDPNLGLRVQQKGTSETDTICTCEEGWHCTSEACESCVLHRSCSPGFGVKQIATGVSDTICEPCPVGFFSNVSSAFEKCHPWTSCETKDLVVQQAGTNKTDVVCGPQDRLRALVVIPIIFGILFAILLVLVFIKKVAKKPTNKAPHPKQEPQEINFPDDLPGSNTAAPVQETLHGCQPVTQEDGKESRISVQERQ

Binder	IFNγ activity EC50, reporter in HEK-Blue IFNγ cells [1] [ng/mL]	CD40 EC50 (ng/mL), NFκB-SEAP reporter in HEK-Blue CD40L cells (human CD40) [ng/mL]	IFNγ EC50 (ng/mL), reporter in HEK-Blue IFNγ cells [2] [ng/mL]	IFNε EC50 (ng/mL), SEAP reporter in HEK-Blue hIFN-α/β cells [3] [ng/mL]
IFA43 (antibody, human IgG2, kappa) heavy: not shown light: DIQMTQSPSSVSASVGDRVTITCRASQGIYSWLAWYQQKPGKAPNLLIYTASTLQSGVPSRFSGSGSGTDFTLTISSLQPEDFATYYCQQANIFPLTFGGGTKVEIKRTVAAPSVFIFPPSDEQLKSGTASVVCLLNNFYPREAKVQWKVDNALQSGNSQESVTEQDSKDSTYSLSSTLTLSKADYEKHKVYACEVTHQGLSSPVTKSFNRGEC	< 0.01	50.8	< 0.001	
IFA49 (antibody, human IgG2, kappa) heavy: not shown light: DIQMTQSPSSVSASVGDRVTITCRASQGIYSWLAWYQQKPGKAPNLLIYTASTLQSGVPSRFSGSGSGTDFTLTISSLQPEDFATYYCQQANIFPLTFGGGTKVEIKRTVAAPSVFIFPPSDEQLKSGTASVVCLLNNFYPREAKVQWKVDNALQSGNSQESVTEQDSKDSTYSLSSTLTLSKADYEKHKVYACEVTHQGLSSPVTKSFNRGEC		65.8		78.2
